The source of these data is PMC12251713, “The Novel Transcription Factor BnaA01.KAN3 Is Involved in the Regulation of Anthocyanin Accumulation Under Phosphorus Starvation”.

This series has as its target T1, BnaA01.KAN3-His (Brassica napus cv. Zhongshuang 11, UniProt A0A816XN48 1-312).
T1 sequence: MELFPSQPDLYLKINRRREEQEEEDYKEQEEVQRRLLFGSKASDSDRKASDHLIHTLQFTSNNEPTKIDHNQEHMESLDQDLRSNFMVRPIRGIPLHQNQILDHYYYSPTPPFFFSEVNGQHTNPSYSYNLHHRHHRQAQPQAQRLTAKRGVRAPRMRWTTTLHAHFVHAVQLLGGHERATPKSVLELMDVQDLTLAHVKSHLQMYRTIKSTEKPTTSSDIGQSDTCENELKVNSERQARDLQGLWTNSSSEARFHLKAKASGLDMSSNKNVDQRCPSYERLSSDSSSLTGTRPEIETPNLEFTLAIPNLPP
The series is described as follows: EMSA; LightShift Chemiluminescent EMSA Kit (Thermo 20148); buffer, salt, pH and temperature not stated. Particulars: protein: recombinant; tags: His (pET28a); label: biotin 3' end; blunt.

B1: P1BS EMSA probe (dsDNA)
DNA 1: AGACTTTGATTTGCATTATTGCATATACGTAGTAGTATAATGGTACTATC
DNA 2: GATAGTACCATTATACTACTACGTATATGCAATAATGCAAATCAAAGTCT
Take B1: the binding result was “binds”.
